B1: psNb 2-57 (VHH)
VHH: QVQLVESGGGLVQAGGSLRLSCAVSGRTISTFGMGWFRQAPGKEREFVATITRDEDMLLYADSVKGRFTISRDTAKNMVFLQMNSLKIEDTALYYCAVRRDSSWGYSRQSTEYDYWGQGTQVTVSS
B2: psNb 2-34 (VHH)
VHH: HVQLVESGGGLVQAGGSLRLSCAASGRTFSRYAAGWFRQAPGKEREFVAVIEWDGDSAYYADPVKGRFTISRDNAKNTVYLQMNRLKPEDTAVYICAVGGNHYSRSKYYNLDEYDDWGQGTQVTVSS
B3: psNb 2-31 (VHH)
VHH: QVQLVESGGGLVQAGESLRLSCAASKPTFRNFAAGWFRQTPGKDREFVAVIEYDGDSAYYADSVKGRFTISRDNAKNTVYLQMNRLKPGDTAVYICAIGGNHYDPSKYYTADEYDYWGQGTQVTVSS
B4: psNb 1-25 (VHH)
VHH: HVQLVESGGGLVQAGGSLRLSCATSGRTFSTYRMSWFRQAPGKEREFVATIIWSVGSTHYADSVKGRFTISRDNAKNMVYLQMNSLKPEDTAVYYCAAQRSDSSSWGYEDDYDYWGQGTQVTVSS
B5: psNb 2-67 (VHH)
VHH: EVQLVESGGGLVQTGGSLRLSCALSGYTFSIFPTAWFRQAPGKEREFVAGIRWNGSTRDYTEYADFVKGRFTISRDNAKNMVYLQMISLKPEDTALYYCAASDGVIDGTNANAYRYWGQGTQVTVSS
B6: psNb 2-45 (VHH)
VHH: QVQLVESGGGLVQAGGSLRLSCTASGYDFSILAIAWYRQAPGKERELVAAISRVGSTDYADSVKGRFTISRDNTKNTVSLQMDSLKPEDTAVYYCNAGIPMTTVLSGLGFWGQGTQVTVSS
B7: psNb 1-22 (VHH)
VHH: HVQLVESGGGLVQPGGSLRLSCAASGRSFNSYLMGWFRQAPGKEREFVAWISGSPHDIIRYRDSVKDRFTISRDNAKNTVYLQMNSLKPVDTAVYYCAVGSLRVGSFSPDYWGQGTQVTVSS
B8: psNb 1-23 (VHH)
VHH: QVQLVESGGGLVQAGGSLRLSCAASGRTDSISDMGWFRQAPGKEREFVAVVGWSGGGTDYAHSVKGRFTISRDNAKNTVYLQMNSLKPEDTAVYYCAVGSLRVGSFSVEYWGQGTQVTVSS
B9: psNb 2-38 (VHH)
VHH: QVQLVESGGGLVQAGGSLRLSCAAAARFSTSAMGWFRQAPGKEREFVAAISWSNTNTHYADTVKGRFTISADTAKETVDLQMNSLKPEDTAVYYCVQGGWGIRQPIIVDYWGKGTQVTVSS
B10: psNb 1-21 (VHH)
VHH: HVQLVESGGGLVQAGGSLRLSCAAPGRTFSTSAMGWFRQAPGKEREFVAAIDWSNTNIHYADTVKGRFTISTDTAKNTVYLQMNNLKPEDTAVYYCAQGGWGLTQPISVDYWGKGTQVTVSS
B11: psNb 2-65 (VHH)
VHH: HVQLVESGGGLVQAGGSLRLSCAASGTISTLNAMGWYRQAPGKQRELLASISNLGTTYHADSVAGRFTISRGSAKNTVNLQMNSLKPDDTAVYYCNTRVLEGGTQIRDYWGQGTQVTVSS

Legend:
[1] = target: T1, SARS-CoV-2 spike HexaPro (S) (SARS-CoV-2, Wuhan-Hu-1, UniProt P0DTC2, stabilised); test: cryo-EM structure
[2] = target: T1, SARS-CoV-2 spike HexaPro (S); test: ELISA

Binder	binding result [1]	binding result [2]
B1	binds	–
B2	binds	–
B3	–	binds
B4	–	binds
B5	–	binds
B6	binds	–
B7	binds	–
B8	binds	–
B9	binds	–
B10	–	binds
B11	binds	–

— paper doi:10.1101/2021.12.26.474192 (bioRxiv, 2021)
